According to paper PMC8956657 (Nature Communications, 2022):
Where no end group is shown, it is not given here.

Assays:
Assay in all cases: fluorescence polarisation
Conditions in all cases: both partners purified
[1] = target: T1, IMPα7 lacking the IBB domain (residues 73-536) (UniProt O60684 73-536)
T1 construct: also called ΔIBB-IMPα7; importin alpha 7

[2] = target: IMPα1 lacking the IBB domain (residues 70-529) (UniProt P52292 70-529)
[3] = target: T2, IMPα5 lacking the IBB domain (residues 73-538) (UniProt P52294 73-538)
T2 construct: also called ΔIBB-IMPα5; importin alpha 5

[4] = target: T3, IMPα3 lacking the IBB domain (residues 64-521) (UniProt O00629 64-521)
T3 construct: also called ΔIBB-IMPα3; KPNA4
T3 sequence (looked up): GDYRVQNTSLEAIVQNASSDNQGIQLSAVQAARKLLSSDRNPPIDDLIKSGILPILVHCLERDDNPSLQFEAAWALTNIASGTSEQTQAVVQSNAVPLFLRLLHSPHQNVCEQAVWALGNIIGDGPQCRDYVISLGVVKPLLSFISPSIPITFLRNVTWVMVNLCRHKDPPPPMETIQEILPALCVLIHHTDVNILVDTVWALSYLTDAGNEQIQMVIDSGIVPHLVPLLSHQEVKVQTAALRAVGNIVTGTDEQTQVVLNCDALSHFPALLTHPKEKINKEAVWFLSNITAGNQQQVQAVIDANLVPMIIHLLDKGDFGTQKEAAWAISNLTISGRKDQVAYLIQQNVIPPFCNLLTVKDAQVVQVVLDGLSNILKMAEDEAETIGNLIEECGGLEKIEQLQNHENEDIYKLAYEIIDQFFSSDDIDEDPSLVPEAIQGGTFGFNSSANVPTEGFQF

T2 sequence (P52294 73-538): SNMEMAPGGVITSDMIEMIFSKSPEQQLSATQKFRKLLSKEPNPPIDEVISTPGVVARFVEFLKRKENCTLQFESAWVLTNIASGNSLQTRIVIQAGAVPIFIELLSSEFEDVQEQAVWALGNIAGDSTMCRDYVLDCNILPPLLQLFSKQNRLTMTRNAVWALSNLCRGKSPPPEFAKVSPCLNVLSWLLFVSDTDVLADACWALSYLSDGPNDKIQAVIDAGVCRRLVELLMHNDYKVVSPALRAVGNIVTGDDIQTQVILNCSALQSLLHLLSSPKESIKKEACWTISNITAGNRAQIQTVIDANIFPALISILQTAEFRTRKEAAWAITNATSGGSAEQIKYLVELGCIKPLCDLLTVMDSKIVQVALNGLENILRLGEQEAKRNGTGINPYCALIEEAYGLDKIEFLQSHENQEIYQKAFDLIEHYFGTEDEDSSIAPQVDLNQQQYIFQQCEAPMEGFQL
T1 sequence (O60684 73-536): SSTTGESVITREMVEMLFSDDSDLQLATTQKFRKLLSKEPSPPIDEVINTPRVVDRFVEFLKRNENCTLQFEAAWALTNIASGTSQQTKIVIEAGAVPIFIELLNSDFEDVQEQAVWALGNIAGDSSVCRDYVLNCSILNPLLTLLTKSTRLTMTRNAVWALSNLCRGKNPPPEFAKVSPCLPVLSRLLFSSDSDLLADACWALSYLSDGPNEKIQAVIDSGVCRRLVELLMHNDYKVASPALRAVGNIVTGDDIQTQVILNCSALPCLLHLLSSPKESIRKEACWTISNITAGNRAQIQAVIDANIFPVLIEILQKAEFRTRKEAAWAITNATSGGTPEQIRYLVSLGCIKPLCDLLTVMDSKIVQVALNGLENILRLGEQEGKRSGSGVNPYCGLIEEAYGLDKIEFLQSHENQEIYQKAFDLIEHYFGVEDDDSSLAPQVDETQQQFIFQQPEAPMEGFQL

## RKARKRSHSPTKKLRYVKRRF (also: FITC-tagged) [FITC-tagged MERS-CoV ORF4b NLS peptide (residues 19-39), wild type]
[1]
  Kd: 1.9 nM
[2]
  Kd: 2.5 nM
[3]
  binding result: binds
[4]
  Kd: 1.4 nM
